Experimental data from US20060159695A1 (published 2006).
Substitutions are numbered along the chain they refer to.

B1: Fab 007 (Fab, V domains shown)
VH: not shown
VL: DIVMTQSPDSLAVSLGERATINCRASQSVDLFGKSYMHWYQQKPGQPPKLLIYAASNPESGVPDRFSGSGSGTDFTLTISSLQAEDVAVYYCQQIIDDPWTFGQGTKVEIK
B2: Fab 009 (Fab, V domains shown)
VH: not shown
VL: B1 VL with Q27D, K34R
B3: Fab 015 (Fab, V domains shown)
VH: not shown
VL: B1 VL with L31F, K34T
B4: Fab 022 (Fab, V domains shown)
VH: not shown
VL: B1 VL with K34T
B5: Fab 011 (Fab, V domains shown)
VH: not shown
VL: B1 VL with Q27D, K34Q
B6: Fab 029 (Fab, V domains shown)
VH: not shown
VL: B1 VL with Q27D, L31Y, K34V
B7: Fab 025 (Fab, V domains shown)
VH: not shown
VL: B1 VL
B8: Fab 028 (Fab, V domains shown)
VH: not shown
VL: B1 VL with Q27D, K34V, D97E
B9: Fab 016 (Fab, V domains shown)
VH: not shown
VL: B1 VL with L31Y, K34V
B10: Fab 026 (Fab, V domains shown)
VH: not shown
VL: B1 VL with Q27D, L31F
B11: Fab 030 (Fab, V domains shown)
VH: not shown
VL: B1 VL with L31Y, F32L
B12: Fab 019 (Fab, V domains shown)
VH: not shown
VL: B1 VL with Q27D, K34Q
B13: Fab 032 (Fab, V domains shown)
VH: not shown
VL: B1 VL with Q27D, L31Y, K34R
B14: Fab 014 (Fab, V domains shown)
VH: not shown
VL: B1 VL with Q27D, K34V
B15: Fab 013 (Fab, V domains shown)
VH: not shown
VL: B1 VL with Q27D, K34Q
B16: Fab 012 (Fab, V domains shown)
VH: not shown
VL: B1 VL
B17: Fab 024 (Fab, V domains shown)
VH: not shown
VL: B1 VL with Q27D, K34T
B18: Fab 010 (Fab, V domains shown)
VH: not shown
VL: B1 VL with Q27D, K34R
B19: Fab 017 (Fab, V domains shown)
VH: not shown
VL: B1 VL with Q27D, L31Y, K34Q
B20: Fab 008 (Fab, V domains shown)
VH: not shown
VL: B1 VL with Q27D
B21: Fab 018 (Fab, V domains shown)
VH: not shown
VL: B1 VL with Q27D, K34Q, D97E
B22: Fab A10 (Fab, V domains shown)
VH: not shown
VL: B1 VL with F32L, K34G, D97E

The binders below were run against RSV F protein on human RSV virus (Long strain) (human RSV, Long strain, UniProt P12568 26-574) (assay: cell-based or functional assay).
In the case of B1, the “Viral Neut (fold increase over wild-type B23 Fab)” value is reported as 5 fold. With B2 the “Viral Neut (fold increase over wild-type B23 Fab)” value was 19 fold. In the case of B3, the “Viral Neut (fold increase over wild-type B23 Fab)” value is reported as 8 fold. B4 was tested, and the “Viral Neut (fold increase over wild-type B23 Fab)” value was 22 fold. For B5, the “Viral Neut (fold increase over wild-type B23 Fab)” value was over 23 fold. In the case of B6, the “Viral Neut (fold increase over wild-type B23 Fab)” value is reported as over 23 fold. B7 was tested, and the “Viral Neut (fold increase over wild-type B23 Fab)” value was 20 fold. B8 was tested, and the “Viral Neut (fold increase over wild-type B23 Fab)” value was 18 fold. With B9 the “Viral Neut (fold increase over wild-type B23 Fab)” value was 10 fold. With B10 the “Viral Neut (fold increase over wild-type B23 Fab)” value was 20 fold. For B11, the “Viral Neut (fold increase over wild-type B23 Fab)” value was 18 fold. With B12 the “Viral Neut (fold increase over wild-type B23 Fab)” value was over 23 fold. With B13 the “Viral Neut (fold increase over wild-type B23 Fab)” value was over 23 fold. In the case of B14, the “Viral Neut (fold increase over wild-type B23 Fab)” value is reported as under 1 fold. With B15 the “Viral Neut (fold increase over wild-type B23 Fab)” value was 13 fold. For B16, the “Viral Neut (fold increase over wild-type B23 Fab)” value was 11 fold. In the case of B17, the “Viral Neut (fold increase over wild-type B23 Fab)” value is reported as over 23 fold. With B18 the “Viral Neut (fold increase over wild-type B23 Fab)” value was 18 fold. With B19 the “Viral Neut (fold increase over wild-type B23 Fab)” value was over 23 fold. B20 was tested, and the “Viral Neut (fold increase over wild-type B23 Fab)” value was 15 fold.

The binders below were run against T1, soluble, extracellular domain of recombinantly expressed RSV F protein (human RSV) (assay: SPR (Biacore), Fab over captured biotinylated RSV-F;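 as to Kd: purified Fabs injected at a single concentration, reference surface subtracted, rate constants from a one-to-one binding model fit, Kd computed as koff divided by kon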;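 as to koff: purified Fabs injected at a single concentration, reference surface subtracted, rate constants from a one-to-one binding model fit, Kd computed as koff divided by kon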;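 as to kon: purified Fabs injected at a single concentration, reference surface subtracted, rate constants from a one-to-one binding model fit, Kd computed as koff divided by kon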).
T1 construct: extracellular domain; also called recombinant RSV F protein; recombinant RSV-F
T1 sequence (P12568 26-109, chain 1 of 2): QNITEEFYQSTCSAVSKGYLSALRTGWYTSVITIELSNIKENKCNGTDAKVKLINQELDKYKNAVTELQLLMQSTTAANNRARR
T1 sequence (P12568 137-524, chain 2 of 2): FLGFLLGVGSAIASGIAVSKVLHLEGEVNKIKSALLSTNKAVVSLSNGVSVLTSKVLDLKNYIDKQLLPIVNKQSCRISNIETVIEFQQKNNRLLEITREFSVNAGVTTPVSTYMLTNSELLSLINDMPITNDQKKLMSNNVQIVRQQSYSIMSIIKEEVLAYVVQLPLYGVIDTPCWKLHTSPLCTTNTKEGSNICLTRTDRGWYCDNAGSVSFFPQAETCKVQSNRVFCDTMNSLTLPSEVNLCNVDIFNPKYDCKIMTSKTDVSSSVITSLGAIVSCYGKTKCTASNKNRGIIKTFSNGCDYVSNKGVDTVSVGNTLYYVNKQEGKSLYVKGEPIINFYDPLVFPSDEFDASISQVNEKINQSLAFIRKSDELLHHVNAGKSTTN
In the case of B2, the “fold decrease in binding dissociation constant (Kd) relative to A7” value is reported as about 4 fold.

Biological target: T1, soluble, extracellular domain of …
Test: as above
Remark: another data set of the same source
Binder B1 has a Kd of 0.058 nM, a koff of 0.00019 s⁻¹ and a kon of 3.3e+06 M⁻¹ s⁻¹. Binder B2 has a Kd of 0.028 nM, a koff of 7.9e-05 s⁻¹ and a kon of 2.8e+06 M⁻¹ s⁻¹. For B3, the Kd was 0.016 nM, the koff was 7.8e-05 s⁻¹ and the kon was 5e+06 M⁻¹ s⁻¹. For B21, the Kd was 0.055 nM, the koff was 8.8e-05 s⁻¹ and the kon was 1.6e+06 M⁻¹ s⁻¹. Work on B22 yielded a Kd of 0.175 nM, a koff of 0.000147 s⁻¹ and a kon of 850000 M⁻¹ s⁻¹. B4 was tested, and the Kd was 0.025 nM, the koff was 5.4e-05 s⁻¹ and the kon was 2.16e+06 M⁻¹ s⁻¹. B5 was tested, and the Kd was 0.007 nM, the koff was 2.7e-05 s⁻¹ and the kon was 4e+06 M⁻¹ s⁻¹. For B6, the Kd was 0.009 nM, the koff was 4e-05 s⁻¹ and the kon was 4.58e+06 M⁻¹ s⁻¹. B7 gave a Kd of 0.018 nM, a koff of 4.6e-05 s⁻¹ and a kon of 2.52e+06 M⁻¹ s⁻¹. B8 was tested, and the Kd was 0.02 nM, the koff was 8.6e-05 s⁻¹ and the kon was 4.2e+06 M⁻¹ s⁻¹. Binder B9 has a Kd of 0.09 nM, a koff of 9e-05 s⁻¹ and a kon of 1e+06 M⁻¹ s⁻¹. Work on B10 yielded a Kd of 0.028 nM, a koff of 6.6e-05 s⁻¹ and a kon of 2.39e+06 M⁻¹ s⁻¹. In the case of B11, the Kd is reported as 0.073 nM, the koff is reported as 7.5e-05 s⁻¹ and the kon is reported as 1.03e+06 M⁻¹ s⁻¹. With B12 the Kd was 0.0135 nM, the koff was 4.5e-05 s⁻¹ and the kon was 3.34e+06 M⁻¹ s⁻¹. In the case of B13, the Kd is reported as 0.039 nM, the koff is reported as 3.6e-05 s⁻¹ and the kon is reported as 930000 M⁻¹ s⁻¹. With B14 the Kd was 0.184 nM, the koff was 7e-05 s⁻¹ and the kon was 380000 M⁻¹ s⁻¹. For B15, the Kd was 0.058 nM, the koff was 0.00021 s⁻¹ and the kon was 3.6e+06 M⁻¹ s⁻¹. With B16 the Kd was 0.005 nM, the koff was 1.5e-05 s⁻¹ and the kon was 3e+06 M⁻¹ s⁻¹. Work on B17 yielded a Kd of 0.002 nM, a koff of 7e-06 s⁻¹ and a kon of 3.14e+06 M⁻¹ s⁻¹. B18 was tested, and the Kd was 0.047 nM, the koff was 0.00018 s⁻¹ and the kon was 3.8e+06 M⁻¹ s⁻¹. Work on B19 yielded a Kd of 0.054 nM, a koff of 8.1e-05 s⁻¹ and a kon of 1.5e+06 M⁻¹ s⁻¹. Work on B20 yielded a Kd of 0.133 nM, a koff of 0.00028 s⁻¹ and a kon of 2.1e+06 M⁻¹ s⁻¹.
